Source: US10247735B2, “Compositions and methods for regulating glucose metabolism” (The J. David Gladstone Institutes, priority 2011, dated 2019)

T1: p75^NTR ICD (Homo sapiens, UniProt P08138)
T1 construct: peptide array data of Rab31 peptides with p75^NTR intracellular domain (ICD)
T1 sequence (P08138 273-427 limits assumed): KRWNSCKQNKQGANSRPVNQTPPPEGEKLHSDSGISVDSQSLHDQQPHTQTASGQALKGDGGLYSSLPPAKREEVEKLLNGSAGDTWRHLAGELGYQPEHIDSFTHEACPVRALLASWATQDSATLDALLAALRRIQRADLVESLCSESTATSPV

T2: Rab31 (Homo sapiens, UniProt Q13636)
T2 sequence (Q13636 1-195): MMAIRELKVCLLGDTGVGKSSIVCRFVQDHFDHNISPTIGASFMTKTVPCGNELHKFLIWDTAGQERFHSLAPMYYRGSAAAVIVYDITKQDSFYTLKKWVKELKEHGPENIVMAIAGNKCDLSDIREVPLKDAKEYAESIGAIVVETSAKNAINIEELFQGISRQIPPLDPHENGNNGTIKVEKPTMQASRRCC


Assays:
p75^NTR ICD = target: T1, p75^NTR ICD; assay: Peptide array of Rab31 peptides with GST-p75^NTR ICD; type: binding; settings: peptide array of overlapping Rab31 peptides, 1 μg/ml GST-p75^NTR ICD
Description: Peptide arrays were manufactured by Kinexus Bioinformatics Corporation (Vancouver, Canada). Synthetic overlapping peptides (25 amino acids in length) for Rab31 were spotted on nitrocellulose membranes. Membranes were overlaid with 1 μg/ml recombinant GST-p75^NTR ICD. Bound recombinant GST-p75ICD were detected using rabbit anti-p75^NTR (1:1000, Millipore) followed by secondary anti-rabbit horseradish peroxidase antibody (1:5000, Cell Signaling).

Rab31 = target: T2, Rab31; assay: Peptide array mapping of p75ICD peptides with GST-Rab31; type: binding; settings: peptide array of overlapping p75ICD peptides, 1 μg/ml GST-Rab31
Description: (§1) Peptide arrays were manufactured by Kinexus Bioinformatics Corporation (Vancouver, Canada). Synthetic overlapping peptides (25 amino acids in length) for p75ICD were spotted on nitrocellulose membranes. Membranes were overlaid with 1 μg/ml recombinant GST-Rab31, GST-Rab5 and p75^NTR ICD. Bound recombinant GST-Rab31 and GST-Rab5 were detected using rabbit anti-GST (1:1000, Cell Signaling) and bound recombinant p75ICD was detected using rabbit anti-p75^NTR (1:1000, Millipore) followed by secondary anti-rabbit horseradish peroxidase antibody (1:5000, Cell Signaling).

Rab5 = assay: Peptide array mapping of p75ICD peptides with GST-Rab5; type: binding; settings: peptide array of overlapping p75ICD peptides, 1 μg/ml GST-Rab5
Description: as §1

3T3L1 adipocytes = assay: Glucose uptake assay in 3T3L1 adipocytes; type: cell-based, mouse; settings: for glucose uptake: addition of neurotrophin ligand, 100 ng/ml NGF or 50 ng/ml BDNF; for basal and insulin-stimulated glucose uptake: neurotrophin treatment for 1 h before insulin stimulation
Description: 3T3L1 cells were maintained in DMEM containing 10% bovine serum. All media were supplemented with 1% penicillin/streptomycin (Invitrogen). Mouse embryonic fibroblasts (MEFs) were isolated from wild-type (WT) and p75^NTR−/− embryos as described (5). Briefly, heads and internal organs were removed from E12-14 embryos, and the remaining embryo was minced with scissors. Ten ml of ice cold phosphate-buffered saline (PBS) was added and minced embryos were centrifuged for 5 minutes at 500×g. Each embryo was resuspended in 7.5 ml Trypsin-EDTA for 20 minutes at 37° C. with occasional shaking. After trypsin deactivation by 7.5 ml DMEM with 10% FBS the suspension was poured through a 70 μm filter and cells were cultured in DMEM with 10% fetal bovine serum (FBS). Differentiation of 3T3L1 cells and MEFs was performed as described (6). Briefly, differentiation was induced by incubating confluent monolayers for 3 days in DMEM containing 10% fetal bovine serum (FBS), 0.5 mM 3-isobutyl-1-methylxanthine, 0.4 μg/ml dexamethasone, and 1 μg/ml of insulin. Medium was replaced every 2 days with DMEM containing 10% FBS. After 8-12 days, 75% of the cells expressed the adipocyte phenotype as assessed by Oil Red O. Isolation of primary adipocytes from epididymal fat pads was performed as described (7). Briefly, fat pads were minced in Krebs-Ringer Bicarbonate-Hepes (KRBH) buffer, pH 7.4, treated with collagenase (Invitrogen) for 40 min, filtered through a nylon strainer and centrifuged at 400×g for 1 minute. Fully-differentiated adipocytes were transfected by electroporation using Amaxa Cell Line Nucleofector kit L (Lonza) following manufacturer's instructions. For p75^NTR knockdown experiments, 3T3L1 cells were differentiated for 6-8 days and infected with lentivirus encoding a short hairpin shRNA for mouse p75^NTR (8) and L6 myocytes were transfected with siGENOME SMART pool for rat p75^NTR (Thermo Scientific).
Fully differentiated 3T3L1 adipocytes and eight day differentiated WT and p75^NTR−/− MEFs were serum-starved for 3 hrs in DMEM and then equilibrated in Hepes/Salt (H/S) buffer for 30 min prior to treatment with 100 nM insulin for 30 min at 37° C. Thirty min after the addition of insulin, [^3H]-2-deoxyglucose (Amersham) and 2 mM 2-deoxyglucose (Sigma) in H/S buffer was added. After incubation at 37° C. for 10 min, the reactions were terminated by washing twice with ice-cold PBS. Cells were lysed in 1 M NaOH for 30 min at room temperature. An equal volume of 1 M HCl was added and incorporated radioactivity was measured by liquid scintillation counting. […] The fat cells were isolated and the level of radioactivity was counted. […]

Row | binding to p75^NTR ICD (p75^NTR ICD) | Molecule | interaction with Rab31-GST (Rab31) | interaction with Rab5-GST (Rab5) | glucose uptake (3T3L1 adipocytes) | basal and insulin-stimulated glucose uptake (3T3L1 adipocytes)
1 | binds | EHGPENIVMAIAGNK [Peptide 6] | – | – | – | –
2 | – | LLASWATQDSATLDA [peptide 7, p75^NTR ICD death-domain peptide, aa 386-400, helix 4 and region between helixes 4 and 5] | strongest interactions | strongest interactions | – | –
3 | – | NGF: p75^NTR neurotrophin ligand, nerve growth factor (Peprotech) | – | – | did not affect | No statistically significant differences
4 | – | BDNF: p75^NTR neurotrophin ligand, brain-derived neurotrophic factor (Peprotech) (protein, UniProt P23560 19-247, looked up) Neurotrophic factor BDNF …: APMKEANIRGQGGLAYPGVRTHGTLESVNGPKAGSRGLTSLADTFEHVIEELLDEDQKVRPNEENNKDADLYTSRVMLSSQVPLEPPLLFLLEEYKNYLDAANMSMRVRRHSDPARRGELSVCDSISEWVTAADKKTAVDMSGGTVTVLEKVPVSKGQLKQYFYETKCNPMGYTKEGCRGIDKRHWNSQCRTTQSYVRALTMDSKKRIGWRFIRIDTSCVCTLTIKRGR | – | – | did not affect | No statistically significant differences
